Data: patent publication US7223556 (Harvard, dated 2007)

How the values were obtained:
[1] = target: Skp1p (Saccharomyces cerevisiae) (UniProt P52286); experiment: cell-based or functional assay
[2] = target: retinoblastoma tumor suppressor protein (pRB) (UniProt P06400); experiment: cell-based or functional assay
[3] = target: EE-tagged HPV16-E2 (human papillomavirus type 16) (UniProt P03120); experiment: cell-based or functional assay
[4] = target: T1, retinoblastoma tumor suppressor protein (pRB) (UniProt P06400 1-928); experiment: co-immunoprecipitation of in vitro translated 35S-labelled proteins with anti-Flag M2 antibody, SDS PAGE
T1 construct: For the co-immunoprecipitation it was translated in vitro and 35S-labelled; In yeast Y81 cells it was expressed from plasmid p2202TRB
T1 sequence: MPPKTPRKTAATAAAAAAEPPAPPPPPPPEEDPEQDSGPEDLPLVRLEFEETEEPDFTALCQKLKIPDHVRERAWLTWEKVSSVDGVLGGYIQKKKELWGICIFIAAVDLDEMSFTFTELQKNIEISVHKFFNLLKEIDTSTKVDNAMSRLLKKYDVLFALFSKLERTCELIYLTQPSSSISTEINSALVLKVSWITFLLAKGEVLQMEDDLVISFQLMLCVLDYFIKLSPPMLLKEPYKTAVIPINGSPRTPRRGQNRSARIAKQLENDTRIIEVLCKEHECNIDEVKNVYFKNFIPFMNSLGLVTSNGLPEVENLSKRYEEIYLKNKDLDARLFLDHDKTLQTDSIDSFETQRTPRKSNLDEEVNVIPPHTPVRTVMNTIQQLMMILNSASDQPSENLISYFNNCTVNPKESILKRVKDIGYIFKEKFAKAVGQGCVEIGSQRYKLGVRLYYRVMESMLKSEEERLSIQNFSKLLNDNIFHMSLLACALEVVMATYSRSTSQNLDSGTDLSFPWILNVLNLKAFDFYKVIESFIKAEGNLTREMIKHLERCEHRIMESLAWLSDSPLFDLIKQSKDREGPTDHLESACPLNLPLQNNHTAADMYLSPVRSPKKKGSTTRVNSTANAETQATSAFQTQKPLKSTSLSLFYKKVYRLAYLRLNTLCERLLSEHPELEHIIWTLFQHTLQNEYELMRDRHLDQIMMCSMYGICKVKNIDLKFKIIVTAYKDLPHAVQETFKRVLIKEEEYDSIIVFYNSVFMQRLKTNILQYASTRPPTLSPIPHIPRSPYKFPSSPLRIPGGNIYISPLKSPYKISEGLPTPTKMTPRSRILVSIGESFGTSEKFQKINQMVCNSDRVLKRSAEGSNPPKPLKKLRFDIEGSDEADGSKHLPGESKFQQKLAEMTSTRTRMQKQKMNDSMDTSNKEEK

Skp1p (Saccharomyces cerevisiae), sequence (P52286 whole entry): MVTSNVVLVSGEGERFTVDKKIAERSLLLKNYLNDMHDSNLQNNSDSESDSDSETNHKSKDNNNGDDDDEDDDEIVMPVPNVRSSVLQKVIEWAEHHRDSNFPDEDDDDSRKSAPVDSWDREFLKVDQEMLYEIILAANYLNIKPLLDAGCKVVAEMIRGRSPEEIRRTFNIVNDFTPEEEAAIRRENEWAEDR
EE-tagged HPV16-E2 (human papillomavirus type 16), sequence (P03120 whole entry): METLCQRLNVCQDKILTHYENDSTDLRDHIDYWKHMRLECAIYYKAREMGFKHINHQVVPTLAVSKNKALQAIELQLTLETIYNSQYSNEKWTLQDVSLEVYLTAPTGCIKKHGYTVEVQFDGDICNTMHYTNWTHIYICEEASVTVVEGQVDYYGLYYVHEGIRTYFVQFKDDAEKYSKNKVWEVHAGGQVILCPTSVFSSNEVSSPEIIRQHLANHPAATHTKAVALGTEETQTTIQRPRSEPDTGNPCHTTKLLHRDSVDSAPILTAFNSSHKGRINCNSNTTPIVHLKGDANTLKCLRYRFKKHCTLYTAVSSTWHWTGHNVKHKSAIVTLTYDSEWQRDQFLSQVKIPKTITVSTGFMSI

Molecule: Cdc4p(G300D) (from UniProt P07834 1-779)
- half life of the mutant Cdc4p protein after promoter shut-off in KY130 cells [1]: > 60 min

Molecule: Cdc4p(ΔF)
- half life of the mutant Cdc4p protein after promoter shut-off in KY130 cells [1]: > 60 min

Molecule: Cdc4p^F/WD-E7N (from UniProt P03129 2-35)
- half life of pRB after promoter shut-off in Y81 yeast cells [2]: 70 minutes

Molecule: Cdc4p^F/WD-E1C (from UniProt P03114 424-649)
- half life of EE-E2 after promoter shut-off in INVSc1 yeast cells [3]: 16 min

Molecule: Cdc4p^F/WD-βgal (from UniProt P00722 10-1024)
- half life of the βgal fusion after promoter shut-off in KY130 cells [1]: 35 min

B1: Flag-tagged βTrCP (other)
chain: MDPAEAVLQEKALKFMNSSEREDCNNGEPPRKIIPEKNSLRQTYNSCARLCLNQETVCLASTAMKTENCVAKTKLANGTSSMIVPKQRKLSASYEKEKELCVKYFEQWSESDQVEFVEHLISQMCHYQHGHINSYLKPMLQRDFITALPARGLDHIAENILSYLDAKSLCAAELVCKEWYRVTSDGMLWKKLIERMVRTDSLWRGLAERRGWGQYLFKNKPPDGNAPPNSFYRALYPKIIQDIETIESNWRCGRHSLQRIHCRSETSKGVYCLQYDDQKIVSGLRDNTIKIWDKNTLECKRILTGHTGSVLCLQYDERVIITGSSDSTVRVWDVNTGEMLNTLIHHCEAVLHLRFNNGMMVTCSKDRSIAVWDMASPTDITLRRVLVGHRAAVNVVDFDDKYIVSASGDRTIKVWNTSTCEFVRTLNGHKRGIACLQYRDRLVVSGSSDNTIRLWDIECGACLRVLEGHEELVRCIRFDNKRIVSGAYDGKIKVWDLVAALDPRAPAGTLCLRTLVEHSGRVFRLQFDEFQIVSSSHDDTILIWDFLNDPAAQAEPPRSPSRTYTYISR
notes: Untagged βTrCP in lane 1 is the control for the anti-Flag immunoprecipitation; also called F-βTrCP; F-TrCP
- binding result [4]: no binding
